± gives the uncertainty stated by the source.
Experiment: protein stability index of a GFP-peptide fusion (yeast GPS) (PSI 1-4); higher = more stable; sorted into four equal gates, so the index is relative within each strain
Conditions: san1∆
Procedure, shortened: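 Peptides tiling yeast proteins in 17-residue segments were fused downstream of GFP, with Cherry expressed from the same plasmid. As a pooled library in yeast, mid-log cultures grown in leucine-free medium were sorted into four equal gates by GFP/Cherry fluorescence ratio. Gate plasmids were PCR-amplified and Illumina-sequenced, and barcodes linked reads to strains. Each peptide received a protein stability index equal to the sum of each gate's read frequency times its gate number.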

Row | Sequence | protein stability index
1 | EEDVYLDPLARVSKDKK [FAS2] | 3.46 ± 0.069
2 | EEEKELTEEELKTRYVG [RPN11] | 3.4 ± 0.067
3 | EEGEYKNAANTEGHKGH [ISW2] | 3.31 ± 0.064
4 | EEIEPKLEKLRNEKRMF [SMC2] | 3.02 ± 0.1
5 | EEIFFKSVRILKNKAEY [RPC40] | 3.06 ± 0.062
6 | EEIKQSARNYDKFKLNE [SMC1] | 3.16 ± 0.076
7 | EEIKTVDPASAPNHSPE [RRP6] | 3.27 ± 0.068
8 | EEKEEEAAEESDDDMGF [RPP1B] | 3.09 ± 0.048
9 | EEKLKANKEKKKAEKAA [RPL24A] | 3.28 ± 0.043
10 | EEKPDVTYSDVGGCKDQ [RPT1] | 3.04 ± 0.23
11 | EELRDLYQTYHVLVGDL [FAS1] | 2.22 ± 0.059
12 | EENEDNDGNNRTNNVPM [NUT1] | 3.31 ± 0.16
13 | EERERKDQYVPEVSALD [RPS17A] | 3.17 ± 0.042
14 | EEYKQLVKDRKFLREVF [RPO21] | 2.81 ± 0.084
15 | EFANFELKDICSFAVTK [YML103C/NUP188] | 2.22 ± 0.12
16 | EFDSDDDDISDDEEDEI [RPN4] | 3.14 ± 0.082
17 | EFEKKLQETLNKSTSSE [YIL149C/MLP2] | 3.17 ± 0.14
18 | EFIAHRLGLIPLQSMDI [RPB3] | 1.92 ± 0.23
19 | EFLINEGTPINNVYFAA [RPN14] | 1.91 ± 0.087
20 | EFSPRLHNIWSNGLLSI [YML103C/NUP188] | 2.08 ± 0.11
21 | EFVDDYTVNVVDVFAMP [RPN11] | 2.91 ± 0.12
22 | EGAARGTSVYLVDKRID [DIS3] | 3.13 ± 0.086
23 | EGGKNQAELLQLAVKII [YJL039C/NUP192] | 3.3 ± 0.2
24 | EGIEIYDRKKLPRKEVD [RPC11] | 1.91 ± 0.14
25 | EGKSVDELITEGNEKLA [RPP2A] | 3.41 ± 0.074
26 | EGLTYKYPARRIHTNDN [SSN3] | 2.86 ± 0.076

Row | Sequence | protein stability index
27 | EGNAQLVAIFGGQGNTD [FAS1] | 2.13 ± 0.13
28 | EGNQIIVFVHSRKETSR [BRR2] | 1.8 ± 0.072
29 | EGRSFTKAIEDAKKEMK [YLR335W/NUP2] | 2.83 ± 0.06
30 | EGVEYLREYLNLPEHIV [RPS10A] | 3.2 ± 0.072
31 | EGWPKFQDTLYKKIPLL [QCR10] | 1.85 ± 0.098
32 | EHFSDEETYEEKPQFKD [RPO26] | 3.25 ± 0.15
33 | EHKQLVAEIVQNVISLG [RPC82] | 2.16 ± 0.25
34 | EHRIRVFFDKRIGQEVD [RPS6A] | 2.6 ± 0.29
35 | EHTDVIDELIDTKLRLE [YIL149C/MLP2] | 2.77 ± 0.039
36 | EHWKVRNFKKANLVNKE [BRN1] | 1.54 ± 0.13
37 | EIAQANSRNAIRKLVKN [RPL19A] | 2.86 ± 0.11
38 | EIDDTEAEVTAEVNGGD [BRR2] | 3.01 ± 0.13
39 | EIEDGQDGGVTPYSNES [RPO21] | 3.38 ± 0.049
40 | EIEPILMEIHNILKVDS [RGR1] | 1.98 ± 0.15
41 | EIGLLGGRYVYPVHEAH [SNU114] | 2.79 ± 0.077
42 | EIGLLPEDALVNDFSDI [SMC3] | 3.19 ± 0.088
43 | EIINNKTSSQTSLSSKD [YMR153W/NUP53] | 2.34 ± 0.12
44 | EIKVGKQRFQGCNNLIK [ARP9] | 3.39 ± 0.092
45 | EILGINLANEQPVLEKP [SIR4] | 3.21 ± 0.045
46 | EILILINDPTNKEYTLV [SIN4] | 2.06 ± 0.1
47 | EIMEERNVEQKLNELDE [NNF1] | 3.13 ± 0.052
48 | EIPTQIYRTTRQDGSYT [ARP9] | 2.93 ± 0.083
49 | EIRRSLSLNLGDYGSAK [POP5] | 3.05 ± 0.18
50 | EISASESKFILEALRQN [RRP45] | 2.88 ± 0.094
51 | EISRLKTSLSIKVENLN [SMC2] | 2.39 ± 0.17

From the supplement of paper PMC9732359
